We go through five molecules from publication PMC2716121 (Journal of molecular biology, 2009).

What all share (assay): AUC
Series [1] addresses PhoB^F20D, phosphorylated (Escherichia coli) (UniProt P0AFJ5).
Series [2] has as its target Wild-type PhoB, phosphorylated (Escherichia coli) (UniProt P0AFJ5).
Series [3] concerns the target Wild-type PhoB, unphosphorylated (Escherichia coli) (UniProt P0AFJ5).
The series “AUC” concerns the molecule itself.

For “PhoB^F20D, phosphorylated (from UniProt P0AFJ5 1-229) (natural protein)”, the Kd (commonly the free concentration of one partner at which half of the binding sites on the other are occupied at equilibrium, for simple one-to-one binding) in series [1] stood at 2.8 µM.

For “Wild-type PhoB, phosphorylated (from UniProt P0AFJ5 1-229) (natural protein)”, the equilibrium dissociation constant (Kd) in series [2] is 5.1 µM.

The molecule “Wild-type PhoB, unphosphorylated (from UniProt P0AFJ5 1-229) (natural protein)” returned a Kd in series [3] of 378 µM.

B1: PhoB^R91E/E111R, unphosphorylated (natural protein, Escherichia coli, UniProt P0AFJ5 1-229, looked up)
chain: MARRILVVEDEAPIREMVCFVLEQNGFQPVEAEDYDSAVNQLNEPWPDLILLDWMLPGGSGIQFIKHLKRESMTRDIPVVMLTARGEEEDEVRGLETGADDYITKPFSPKRLVARIKAVMRRISPMAVEEVIEMQGLSLDPTSHRVMAGEEPLEMGPTEFKLLHFFMTHPERVYSREQLLNHVWGTNVYVEDRTVDVHIRRLRKALEPGGHDRMVQTVRGTGYRFSTRF
For the molecule B1, in the series “AUC”, the binding result was “binds”.

B2: PhoB^R91E/E111R, phosphorylated (natural protein, Escherichia coli, UniProt P0AFJ5 1-229, looked up)
chain: MARRILVVEDEAPIREMVCFVLEQNGFQPVEAEDYDSAVNQLNEPWPDLILLDWMLPGGSGIQFIKHLKRESMTRDIPVVMLTARGEEEDEVRGLETGADDYITKPFSPKRLVARIKAVMRRISPMAVEEVIEMQGLSLDPTSHRVMAGEEPLEMGPTEFKLLHFFMTHPERVYSREQLLNHVWGTNVYVEDRTVDVHIRRLRKALEPGGHDRMVQTVRGTGYRFSTRF
modifications: phosphorylated at D53 (site of phosphorylation) with phosphoramidate; 100% phosphorylated at steady state
Take B2: the binding result in “AUC” is “binds”.
